According to patent publication US20250270302A1:

Columns and labels:
[1] = biological target: human Gremlin-1 (huGREM1), recombinant protein (human) (UniProt O60565); assay: cell-based or functional assay
[2] = biological target: human Gremlin-1 (huGREM1), recombinant protein (human) (UniProt O60565); assay: binding ELISA on huGREM1, hybridoma clone selection

UniProt O60565, sequence (O60565 25-184 limits assumed): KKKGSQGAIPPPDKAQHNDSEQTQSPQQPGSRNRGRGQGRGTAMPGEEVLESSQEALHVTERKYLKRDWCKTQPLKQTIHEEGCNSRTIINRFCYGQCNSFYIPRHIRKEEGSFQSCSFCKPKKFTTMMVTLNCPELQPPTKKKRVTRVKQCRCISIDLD

B1: anti-Gremlin-1 antibody 14-D10-2 (antibody, from a related filing, IgG2b, V domains shown)
VH: EVQLQQSGPELVKPGASVKISCKASGYSFTGYYMHWVKQSHGNILDWIGYFFPYNGFSNCNQKFKGKATLTVDKSSSTAYMELRSLTSEDSAVYYCARGGLGRGYFDVWGTGTTVTVSS
VL: DIQMTQSPSYLSVSLGGRVTITCKASDHINNWLAWYQQKPGNAPRLLISGATSLETGVPSRFSGSGSGKDYTLSITSLQTEDVATYYCQQYWSSPRTFGGGTKLEIK
An EC50, in vitro Gremlin-1 neutralization assay (ALP activity in ATDC5 cells) [1] of 26.4 nM and an OD 492 nm [2] of over 0.9 OD 492 nm were found for B1 in this work.
